In patent US20230129812A1, “COMPOSITIONS AND METHODS FOR TREATING PULMONARY HYPERTENSION” (Acceleron Pharma Inc., priority 2020, published 2023):

Experiments:
GDF11 [1] = molecular target: T1, GDF11 (Homo sapiens, UniProt O95390); assay: A-204 reporter gene assay, pGL3(CAGA)12 luciferase; format: cell-based; details: A-204 reporter gene assay
T1 sequence (O95390 299-407): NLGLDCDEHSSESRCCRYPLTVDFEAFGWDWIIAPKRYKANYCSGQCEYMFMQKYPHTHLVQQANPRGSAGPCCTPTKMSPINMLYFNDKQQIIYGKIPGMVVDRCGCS
Source text: (§1) An A-204 reporter gene assay was used to evaluate the effects of ActRIIB-Fc proteins and ActRIIB variant Fc fusion polypeptides on signaling by GDF-11 and activin A. Cell line: human rhabdomyosarcoma (derived from muscle). Reporter vector: pGL3(CAGA)12 (described in Dennler et al, 1998, EMBO 17: 3091-3100). The CAGA12 motif is present in TGF-beta responsive genes (e.g., PAI-1 gene), so this vector is of general use for factors signaling through SMADs.
(§2) Day 1: Split A-204 cells into 48-well plate.
(§3) Day 2: A-204 cells transfected with 10 ug pGL3(CAGA)12 or pGL3(CAGA)12(10 ug)+pRLCMV (1 pg) and Fugene.
(§4) Day 3: Add factors (diluted into medium+0.1% BSA). Inhibitors need to be preincubated with factors for 1 hr before adding to cells. Six hrs later, cells were rinsed with PBS and lysed.
(§5) This is followed by a luciferase assay.
(§6) Activity of ActRIIB-Fc proteins and ActRIIB variant Fc fusion polypeptides was tested in a cell-based assay as described above. Some variants were tested in different C-terminal truncation constructs. As discussed above, truncations of five or fifteen amino acids caused reduction in activity. […]

activin A [2] = molecular target: T2, activin A (Homo sapiens, UniProt P08476); assay: A-204 reporter gene assay, pGL3(CAGA)12 luciferase; format: cell-based; details: A-204 reporter gene assay
T2 sequence (P08476 311-426): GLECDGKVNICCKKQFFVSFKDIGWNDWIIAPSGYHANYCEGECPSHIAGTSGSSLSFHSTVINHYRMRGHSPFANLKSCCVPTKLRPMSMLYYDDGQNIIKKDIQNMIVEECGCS
Source text: as §1, §2, §3, §4, §5, §6

GDF8 [3] = molecular target: T3, GDF8 (Homo sapiens, UniProt O14793); assay: A-204 reporter gene assay, pGL3(CAGA)12 luciferase; format: cell-based
T3 sequence (O14793 267-375): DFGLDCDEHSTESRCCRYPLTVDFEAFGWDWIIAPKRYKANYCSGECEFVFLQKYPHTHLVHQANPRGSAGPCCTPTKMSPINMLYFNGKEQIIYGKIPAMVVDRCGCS
Source text: as §1, §2, §3, §4, §5
As described below, ActRIIB variants were also tested in this assay.
(§7) In addition, an A-204 Reporter Gene Assay was used to evaluate the effects of ALK4-Fc:ActRIIB-Fc heterodimer and ActRIIB-Fc:ActRIIB-Fc homodimer on signaling by activin A, activin B, GDF11, GDF8, BMP10, and BMP9. Cell line: Human Rhabdomyosarcoma (derived from muscle). Reporter vector: pGL3(CAGA)12 (as described in Dennler et al, 1998, EMBO 17: 3091-3100). The CAGA12 motif is present in TGFβ responsive genes (PAI-1 gene), so this vector is of general use for factors signaling through Smads. An exemplary A-204 Reporter Gene Assay is outlined below. • Day 1: Split A-204 cells into 48-well plate. • Day 2: A-204 cells transfected with 10 ug pGL3(CAGA)12 or pGL3(CAGA)12(10 ug)+pRLCMV (1 ug) and Fugene. • Day 3: Add factors (diluted into medium+0.1% BSA). Inhibitors need to be pre-incubated with Factors for about one hr before adding to cells. About six hrs later, cells are rinsed with PBS and then lysed.
(§8) Following the above steps, a Luciferase assay was performed.

activin B [4] = molecular target: T4, activin B (Homo sapiens, UniProt P09529); assay: A-204 Reporter Gene Assay (Example 13); format: cell-based
T4 sequence (P09529 293-407): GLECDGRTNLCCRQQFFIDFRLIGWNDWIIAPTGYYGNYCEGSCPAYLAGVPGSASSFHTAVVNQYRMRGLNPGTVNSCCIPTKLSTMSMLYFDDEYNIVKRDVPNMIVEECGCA
Source text: as §7, §8

BMP10 [5] = molecular target: T5, BMP10 (Homo sapiens, UniProt O95393); assay: Biacore ligand binding profile, ALK4-Fc:ActRIIB-Fc heterodimer vs homodimers, anti-Fc capture (Example 13, Table 13); details: ligand BMP10, Table 13
T5 sequence (O95393 317-424): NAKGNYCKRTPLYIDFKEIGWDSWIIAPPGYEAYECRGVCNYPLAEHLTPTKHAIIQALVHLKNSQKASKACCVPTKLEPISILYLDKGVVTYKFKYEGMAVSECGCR
Description: (§9) A Biacore™-based binding assay was used to compare ligand binding selectivity of the ALK4-Fc:ActRIIB-Fc heterodimeric complex described above with that of ActRIIB-Fc and ALK4-Fc homodimer complexes. The ALK4-Fc:ActRIeB-Fc heterodimer, […], and ALK4-Fc homodimer were independently captured onto the system using an anti-Fc antibody. Ligands were injected and allowed to flow over the captured receptor protein. Results are summarized in Table 13 below, in which ligand off-rates (kd) most indicative of effective polypeptides are denoted in bold.

BMP6 [6] = molecular target: T6, BMP6 (Homo sapiens, UniProt P22004); assay: as above
T6 sequence (P22004 375-513): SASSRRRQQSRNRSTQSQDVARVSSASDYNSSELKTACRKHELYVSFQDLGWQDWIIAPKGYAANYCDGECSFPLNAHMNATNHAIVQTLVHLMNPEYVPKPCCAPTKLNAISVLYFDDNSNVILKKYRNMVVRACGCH
Description: as §9

BMP9 = molecular target: T7, BMP9 (Homo sapiens, UniProt Q9UK05); assay: as above
T7 sequence (Q9UK05 320-429): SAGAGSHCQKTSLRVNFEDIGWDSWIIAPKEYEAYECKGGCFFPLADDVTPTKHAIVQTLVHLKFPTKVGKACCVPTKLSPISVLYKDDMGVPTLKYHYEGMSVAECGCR
Description: as §9

GDF11 [7] = molecular target: T1, GDF11; assay: as above
Description: as §9

GDF3 = molecular target: T8, GDF3 (Homo sapiens, UniProt Q9NR23); assay: as above; details: ligand GDF3, Table 13
T8 sequence (Q9NR23 251-364): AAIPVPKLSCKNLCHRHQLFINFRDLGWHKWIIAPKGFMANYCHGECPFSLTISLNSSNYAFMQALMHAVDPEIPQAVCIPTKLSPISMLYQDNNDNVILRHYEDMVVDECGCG
Description: as §9

GDF8 [8] = molecular target: T3, GDF8; assay: as above
Description: as §9

activin A [9] = molecular target: T2, activin A; assay: as above
Description: as §9

activin B [10] = molecular target: T4, activin B; assay: as above; details: ligand Activin B, Table 13
Description: as §9

GDF11 [11] = molecular target: T1, GDF11; assay: Biacore ligand affinity of ActRIIB-hFc forms, steady-state affinity fit; format: binding
Description: (§10) Affinities of several ligands for ActRIIB(25-131)-hFc and its full-length counterpart ActRIIB(20-134)-hFc were evaluated in vitro with a Biacore™ instrument, and the results are summarized in Table 8 below. Kd values were obtained by steady-state affinity fit due to very rapid association and dissociation of the complex, which prevented accurate determination of kon and koff. ActRIIB(25-131)-hFc bound, for example, activin A, activin B, and GDF11 with high affinity.
(§11) The affinity of ActRIIB variants and other ActRIIB-hFc proteins for several ligands was evaluated in vitro with a Biacore™ instrument. Kd values were obtained by steady-state affinity fit due to the very rapid association and dissociation of the complex, which prevented accurate determination of kon and koff.

activin A [12] = molecular target: T2, activin A; assay: as above; format: binding
Description: as §10, §11

activin B [13] = molecular target: T4, activin B; assay: as above; format: binding
Description: as §10, §11

BMP10 [14] = molecular target: T5, BMP10; assay: Biacore ligand affinity of ActRIIB-hFc variants (Example 10); format: binding
Description: as §11

BMP6 [15] = molecular target: T6, BMP6; assay: as above; format: binding
Description: as §11

GDF8 [16] = molecular target: T3, GDF8; assay: as above; format: binding
Description: as §11

[17] = In vivo activity of ActRIIA variant with substitution at X17; details: substitution of A for K at X17

B1: ActRIIB-Fc homodimer: ActRIIB-Fc homodimer complex used as comparator in Example 13 (protein)
chain: GRGEAETRECIYYNANWELERTNQSGLERCEGEQDKRLHCYASWRNSSGTIELVKKGCWLDDFNCYDRQECVATEENPQVYFCCCEGNFCNERFTHLPEAGGPEVTYEPPPTAPTGGGTHTCPPCPAPELLGGPSVFLFPPKPKDTLMISRTPEVTCVVVDVSHEDPEVKFNWYVDGVEVHNAKTKPREEQYNSTYRVVSVLTVLHQDWLNGKEYKCKVSNKALPVPIEKTISKAKGQPREPQVYTLPPSREEMTKNQVSLTCLVKGFYPSDIAVEWESNGQPENNYKTTPPVLDSDGSFFLYSKLTVDKSRWQQGNVFSCSVMHEALHNHYTQKSLSLSPGK
GDF11 [1]
  inhibition of GDF11 signaling: potent inhibitors
Activin A [2]
  inhibition of activin A signaling: potent inhibitors
GDF8 [3]
  inhibition of GDF8 signaling: potent inhibitors
Activin B [4]
  inhibition of activin B signaling: potent inhibitors
BMP10 [5]
  ka: 2.3 × 10^7 1/MS
  kd: 0.00026 s⁻¹
BMP6 [6]; Example 13
  BMP6 binding: intermediate-level binding
BMP6 [6]; ligand BMP6, Table 13
  ka: 3.2 × 10^7 1/MS
  kd: 0.0068 s⁻¹
BMP9; Example 13
  BMP9 binding: binds strongly
BMP9; ligand BMP9, Table 13
  ka: 1.4 × 10^7 1/MS
  kd: 0.0011 s⁻¹
GDF11 [7]; Example 13
  GDF11 binding: strong binding
GDF11 [7]; ligand GDF11, Table 13
  ka: 5.0 × 10^7 1/MS
  kd: 0.00011 s⁻¹
GDF3
  ka: 1.4 × 10^6 1/MS
  kd: 0.0022 s⁻¹
GDF8 [8]; Example 13
  GDF8 binding: strong binding
GDF8 [8]; ligand GDF8, Table 13
  ka: 8.3 × 10^5 1/MS
  kd: 0.00023 s⁻¹
Activin A [9]; Example 13
  activin A binding: strong binding
Activin A [9]; ligand Activin A, Table 13
  ka: 1.2 × 10^7 1/MS
  kd: 0.00023 s⁻¹
Activin B [10]
  ka: 5.1 × 10^6 1/MS
  kd: 0.0001 s⁻¹

B2: ActRIIB(L79D 25-131)-hFc: truncated ActRIIB extracellular domain (residues 25-131) with L79D substitution fused to human Fc (protein)
chain: ETRECIYYNANWELERTNQSGLERCEGEQDKRLHCYASWRNSSGTIELVKKGCWDDDFNCYDRQECVATEENPQVYFCCCEGNFCNERFTHLPEAGGPEVTYEPPPTGGGTHTCPPCPAPELLGGPSVFLFPPKPKDTLMISRTPRVTCVVVDVSHEDPEVKFNWYVDGVEVHNAKTKPREEQYNSTYRVVSVLTVLHQDWLNGKEYKCKVSNKALPAPIEKTISKAKGQPREPQVYTLPPSREEMTKNQVSLTCLVKGFYPSDIAVEWESNGQPENNYKTTPPVLDSDGSFFLYSKLTVDKSRWQQGNVFSCSVMHEALHNHYTQKSLSLSPGK
GDF11 [11]; Biacore
  GDF11 binding: nearly full retention of GDF11 binding
GDF11 [11]; Table 12, Kd by steady-state affinity fit, read-out: GDF11 (Kd e−11)
  Kd: 0.074 nM
Activin A [12]; Biacore
  activin A binding: pronounced loss of activin A binding
Activin A [12]; Table 12, Kd by steady-state affinity fit, read-out: Activin A (Kd e−11)
  Kd: 22.9 nM
Activin B [13]; Biacore
  activin B binding: partial loss of activin B binding
Activin B [13]; Table 12, Kd by steady-state affinity fit, read-out: Activin B (Kd e−11)
  Kd: 0.621 nM
BMP10 [14]
  BMP10 binding: strong to intermediate binding
BMP6 [15]
  BMP6 binding: strong to intermediate binding
GDF8 [16]
  GDF8 binding: strong to intermediate binding

B3: SEQ ID NO: 283: ActRIIA variant with alanine (A) substituted for lysine (K) at X17 (protein)
chain: GAILGRSETQECLFYNANWELERTNQTGVERCEGEKDKRLHCYATWRNISGSIEIVAKGCWLDDFNCYDRTDCVETEENPQVYFCCCEGNMCNEKFSYFPEMEVTQPTS
[17]
  activity in vivo: reduced activity in vivo
